Target: T1, recombinant human CD123-Fc (human, UniProt P26951 19-305)
T1 construct: not shown: Fc part of CD123-Fc
T1 sequence: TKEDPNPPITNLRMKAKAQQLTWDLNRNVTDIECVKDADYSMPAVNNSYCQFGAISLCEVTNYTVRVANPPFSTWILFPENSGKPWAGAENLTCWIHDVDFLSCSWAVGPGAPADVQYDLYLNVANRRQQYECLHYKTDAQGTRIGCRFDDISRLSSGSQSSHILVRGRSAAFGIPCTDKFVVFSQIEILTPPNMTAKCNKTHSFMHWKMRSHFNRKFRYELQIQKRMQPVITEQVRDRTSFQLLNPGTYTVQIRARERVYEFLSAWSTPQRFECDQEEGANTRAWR
Assay: phage ELISA, captured CD123-Fc
Outline: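 Phage from BCMA panning colonies were rescued with VCSM13 helper phage and diluted 5× in blocking buffer. Plates coated with anti-human IgG1-Fc captured 5 nM target-Fc or IgG1-Fc, and binding was detected with HRP anti-M13. Ratio = A450 target/A450 IgG1-Fc, averaged over the clone's wells.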

B1: SEQ ID NO: 527 (designed binder)
chain: MGSWVVFKQDLADINHQLEALGGSEAELAWFEWEIADFEWELQHYKGKGNPEVEALRKEAAAIRDELQAYRHN
notes: D domain, on phage
ELISA_avg: 3.6 ratio A450 target/IgG1-Fc

B2: SEQ ID NO: 528 (designed binder)
chain: MGSWFQFKEFLAMITHNLEALGGSEAELAEFEHDIALFESELQQYKGKGNPEVEALRKEAAAIRDELQAYRHN
notes: D domain, on phage
ELISA_avg: 3.1 ratio A450 target/IgG1-Fc

B3: SEQ ID NO: 537 (designed binder)
chain: MGSWYEFDHRLDAIYQRLWALGGSEAELAEFEYGIAEFEEYLQDYKGKGNPEVEALISEAWAIEWELSAYRHN
notes: D domain, on phage
ELISA_avg: 4.6 ratio A450 target/IgG1-Fc

B4: SEQ ID NO: 522 (designed binder)
chain: MGSWWDFKDWLAEIKHDLEALGGSEAELALFESEIADFEFGLQWYKGKGNPEVEALRKEAAAIRDELQAYRHN
notes: D domain, on phage
ELISA_avg: 4.2 ratio A450 target/IgG1-Fc

B5: SEQ ID NO: 533 (designed binder)
chain: MGSWAEFKQRLAAIKTRLEALGGSEAELAAFMDEIMAFEWELWAYKGKGNPEVEALMNEAFAIDVELYAYRHN
notes: D domain, on phage
ELISA_avg: 3.4 ratio A450 target/IgG1-Fc

B6: SEQ ID NO: 531 (designed binder)
chain: MGSWTEFKGELAEIKWILEALGGSEAELAFFEDEIAAFEWDLQKYKGKGNPEVEALRKEAAAIRDELQAYRHN
notes: D domain, on phage
ELISA_avg: 8.2 ratio A450 target/IgG1-Fc

B7: SEQ ID NO: 521 (designed binder)
chain: MGSWNDFKEELAWIKFDLEALGGSEAELAWFEEDIAMFEQQLQAYKGKGNPEVEALRKEAAAIRDELQAYRHN
notes: D domain, on phage
ELISA_avg: 3.8 ratio A450 target/IgG1-Fc

B8: SEQ ID NO: 538 (designed binder)
chain: MGSWYEFDMRLDAIWERLTALGGSEAELADFEQYIAEFERQLQDYKGKGNPEVEALFDEAWAIEDELYAYRHN
notes: D domain, on phage
ELISA_avg: 13.7 ratio A450 target/IgG1-Fc

B9: SEQ ID NO: 523 (designed binder)
chain: MGSWDEFKEDLAHIKTDLEALGGSEAELALFEDEIADFEMYLQHYKGKGNPEVEALRKEAAAIRDELQAYRHN
notes: D domain, on phage
ELISA_avg: 6.3 ratio A450 target/IgG1-Fc

B10: SEQ ID NO: 529 (designed binder)
chain: MGSWHWFKEDLAMITDVLEALGGSEAELAAFESEIAVFEADLQYYKGKGNPEVEALRKEAAAIRDELQAYRHN
notes: D domain, on phage
ELISA_avg: 5.2 ratio A450 target/IgG1-Fc

B11: SEQ ID NO: 532 (designed binder)
chain: MGSWFEFKWTLALIKQELEALGGSEAELADFEQEIAEFEWWLQTYKGKGNPEVEALRKEAAAIRDELQAYRHN
notes: D domain, on phage
ELISA_avg: 4.9 ratio A450 target/IgG1-Fc

B12: SEQ ID NO: 526 (designed binder)
chain: MGSWAEFKHDLADIKRELEALGGSEAELAWFELSIAFFEDELQHYKGKGNPEVEALRKEAAAIRDELQAYRHN
notes: D domain, on phage
ELISA_avg: 3.3 ratio A450 target/IgG1-Fc

B13: SEQ ID NO: 530 (designed binder)
chain: MGSWSWFQWDLAGIKDHLEALGGSEAELAEFESEIAYFEDELQWYKGKGNPEVEALRKEAAAIRDELQAYRHN
notes: D domain, on phage
ELISA_avg: 12.9 ratio A450 target/IgG1-Fc

B14: SEQ ID NO: 535 (designed binder)
chain: MGSWWEFDHRLTAIDTRLQALGGSEAELAEFESSIAEFEWWLQDYKGKGNPEVEALFAEAEAIYVELDAYRHN
notes: D domain, on phage
ELISA_avg: 4.3 ratio A450 target/IgG1-Fc

B15: SEQ ID NO: 536 (designed binder)
chain: MGSWWEFQFRLYAIDQRLLALGGSEAELAEFEQDIADFEWMLQDYKGKGNPEVEALMLEADAIEAELKAYRHN
notes: D domain, on phage
ELISA_avg: 3.1 ratio A450 target/IgG1-Fc

B16: SEQ ID NO: 525 (designed binder)
chain: MGSWYQFKDDLAHIKHLLEALGGSEAELAVFEYIIADFESFLQIYKGKGNPEVEALRKEAAAIRDELQAYRHN
notes: D domain, on phage
ELISA_avg: 4 ratio A450 target/IgG1-Fc

B17: SEQ ID NO: 534 (designed binder)
chain: MGSWAEFKQRLAAIKTRLEALGGSEAELAAFEWEIVAFFSELFAYKGKGNPEVEALRDEAIAIETELVAYRHN
notes: D domain, on phage
ELISA_avg: 3.6 ratio A450 target/IgG1-Fc

B18: SEQ ID NO: 524 (designed binder)
chain: MGSWDFFKYDLANINEWLEALGGSEAELADFEYGIADFELWLQDYKGKGNPEVEALRKEAAAIRDELQAYRHN
notes: D domain, on phage
ELISA_avg: 5.5 ratio A450 target/IgG1-Fc

From patent US20230125550A1 (ARCELLX, published 2023)
